Laboratory results: article doi:10.1101/2022.08.09.503299

Biological target: other proteasome components
Experiment: SEC

share of the BirA* signal that co-elutes with proteasome components: 60%
Substance: PSMA4-BirA*-FLAG (from UniProt P25789 2-261) (natural protein)
